B1: 15H05 mouse: canine chimera: mouse 15H05 variable regions on canine IgG constant regions (antibody)
heavy: QVQLQQSAAELARPGASVKMSCKTSGYTFTSYTIHWIKQRPGQGLEWIGNINPTSGYTENNQRFKDKTTLTVDRSSNTAYLQLHSLTSEDSAVYFCARWGFKYDGEWSFDVWGAGTTVTVSSASTTAPSVFPLAPSCGSTSGSTVALACLVSGYFPEPVTVSWNSGSLTSGVHTFPSVLQSSGLYSLSSMVTVPSSRWPSETFTCNVAHPASKTKVDKPVPKRENGRVPRPPDCPKCPAPEMLGGPSVFIFPPKPKDTLLIARTPEVTCVVVDLDPEDPEVQISWFVDGKQMQTAKTQPREEQFNGTYRVVSVLPIGHQDWLKGKQFTCKVNNKALPSPIERTISKARGQAHQPSVYVLPPSREELSKNTVSLTCLIKDFFPPDIDVEWQSNGQQEPESKYRTTPPQLDEDGSYFLYSKLSVDKSRWQRGDTFICAVMHEALHNHYTQESLSHSPGK
light: DIQMNQSPSSLSASLGDTITVTCRASQGISIWLSWYQQKPGNIPKVLINKASNLHIGVPPRFSGSGSGTHFTLTITSLQPEDIATYYCLQSQTYPLTFGGGTKLEINRNDAQPAVYLFQPSPDQLHTGSASVVCLLNSFYPKDINVKWKVDGVIQDTGIQESVTEQDKDSTYSLSSTLTMSSTEYLSHELYSCEITHKSLPSTLIKSFQRSEC
B2: ZTS-927: felinized anti IL-31 15H05 mAb, FEL_15H05_VH1 with Feline_HC_AlleleA_wt, FEL-15H05-VL1_FW2 light chain (antibody, V domains shown)
VH: QVLLVQSGAEVRTPGASVKIFCKASGYSFTSYTIHWLRQAPAQGLEWMGNINPTSGYTENNQRFKDRLTLTADTSTNTAYMELSSLRSADTAMYYCARWGFKYDGEWSFDVWGAGTTVTVSS
VL: EIQMTQSPSSLSASPGDRVTITCRASQGISIWLSWYQQKPGNIPKVLINKASNLHIGVPSRFSGSGSGTDFTLTISSLEPEDAATYYCLQSQTYPLTFGGGTKLEIK
modifications: feline constant regions joined; Felinized variable heavy mAb sequence, from Mus musculus and Felis catus; Felinized variable light mAb sequence, from Mus musculus and Felis catus
B3: ZIL11: fully canine anti IL-31 antibody, VH SEQ ID NO: 87, VL SEQ ID NO: 89 (antibody, listed as Canis familiaris, V domains shown)
VH: EVQLVESGGDLVKPAGSLRLSCVASGFTFRTYVMNWVRQAPGKGLQWVASINGGGSSPTYADAVRGRFTVSRDNAQNSLFLQMNSLRAEDTAVYFCVVSMVGPFDYWGQGTLVTVSS
VL: SSVLTQPPSVSVSLGQTATISCSGESLSNYYAQWFQQKAGQAPVLVIYKDTERPSGIPDRFSGSSSGNTHTLTISGARAEDEADYYCESAVSSDTIVFGGGT
B4: ZIL154: fully canine anti IL-31 antibody, VH SEQ ID NO: 99, VL SEQ ID NO: 101 (antibody, listed as Canis familiaris, V domains shown)
VH: EVHLVESGGDLVKPWGSLRLSCVASGFTFSDRGMSWVRQSPGKGLQWVAYIRYDGSRTDYADAVEGRFTISRDNAKNTLYLQMNSLRAEDTAVYYCARWDGSSFDYWGQGTLVTVSS
VL: DIVVTQTPLSLSVSPGETASFSCKASQSLLHSDGNTYLDWFRQKPGQSPQRLIYKVSNRDPGVPDRFSGSGSGTDFTLRISGVEADDAGLYYCMQAIHFPLTFGAGTKVELK
B5: Feline 11E12 1.2: felinized 11E12, FEL_11E12_VH1 paired with FEL_11E12_VL2 (antibody, V domains shown)
VH: QVLLVQSGAEVKKPGASVKIFCKASGYSFTYYDINWLRQAPEQGLEWMGWIFPGDGGTKYNETFKGRLTLTADTSTNTVYMELSSLRSADTAMYYCARGGTSVIRDAMDYWGQGALVTVSS
VL: EVVLTQSSAFLSRTLKEKATITCRASESVDNYGISFMHWYQQKPNQAPKLLVKRASNLESGAPSRFSGSGSGTDFTLTISSPEPEDAATYYCQQSNKDPLTFGQGT
B6: Feline 11E12 1.1 FW2: Fel_11E12_VH1 paired with Feline 11E12 VL1 carrying mouse FW2 (antibody, V domains shown)
VH: B5 VH
VL: EIQMTQSPSSLSASPGDRVTITCRASESVDNYGISFMHWYQQKPGQPPKLLIYRASNLESGVPSRFSGSGSGTDFTLTISSLEPEDAATYYCQQSNKDPLTFGQGT

Legend:
canine IL-31 [1] = biological target: T1, canine IL-31 (Canis lupus familiaris, UniProt A0A8I3S3D1); test: Inhibition of canine IL-31 induced pSTAT3 signaling in canine DH-82 and feline FCWF4 cells; format: cell-based; conditions: canine IL-31; canine and feline cell types, cell type of the values not specified
T1 construct: made in house; host or cells: CHO cells (CHROMOS ACE system)
T1 sequence (A0A8I3S3D1 24-159): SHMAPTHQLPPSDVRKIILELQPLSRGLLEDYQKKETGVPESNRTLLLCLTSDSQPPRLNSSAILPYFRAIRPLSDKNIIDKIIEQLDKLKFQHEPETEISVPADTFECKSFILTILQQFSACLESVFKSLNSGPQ
Method: (§1) To identify candidates with inhibitory activity, antibodies were assessed for their ability to affect IL-31-mediated STAT3 phosphorylation in either a canine or feline cell-based assay. STAT3 phosphorylation was determined in canine DH-82 (ATCC® CRL-10389™) or feline FCWF4 macrophage-like cells (ATCC CRL-2787). DH82 and FCWF4 cells were primed with canine interferon gamma (R&D Systems, Minneapolis, Minn.) at 10 ng/mL for 24 hours or feline interferon gamma (R&D Systems, Minneapolis, Minn.) at 125 ng/mL for 96 hours, respectively, to increase receptor expression. Both cell types were serum starved for 2 hours prior to IL-31 and mAb treatment. Using two independent methods, all candidate mAbs were evaluated for their ability to inhibit either 1 μg/mL canine or 0.2 μg/mL feline IL-31 induced STAT3 phosphorylation. […] To ensure complex formation, a one hour co-incubation of mAb and IL-31 cytokine prior to cell stimulation was completed. IL-31 cell stimulation was carried out for five minutes. STAT3 phosphorylation was measured using AlphaLISA SureFire ULTRA™ technology (Perkin Elmer, Waltham, Mass.). In the case where antibody concentration and purity are unknown, hybridoma supernatants were qualitatively measured for their ability to inhibit STAT3 phosphorylation following a 1 hour co-incubation with […] IL-31. The potency of individual monoclonal antibodies defined by their ability to inhibit IL-31 mediated STAT3 phosphorylation in these assays was considered the key selection criteria for further advancement of select antibodies. The term potency refers to the IC50 value calculated from these assays and is the concentration of the antibody where signaling induced by IL-31 is reduced to one half its maximal value.

feline IL-31 [2] = test: Inhibition of feline IL-31 induced pSTAT3 signaling in canine DH-82 cells; format: cell-based; conditions: feline IL-31, pSTAT3, canine DH82 cells (FIG. 3)
Method: as §1
Target sequence in this assay (as listed by the source): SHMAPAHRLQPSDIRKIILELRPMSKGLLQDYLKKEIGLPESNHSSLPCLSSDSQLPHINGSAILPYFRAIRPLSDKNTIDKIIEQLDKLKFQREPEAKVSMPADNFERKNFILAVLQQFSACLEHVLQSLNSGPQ

feline IL-31 [3] = test: Affinity of anti-IL-31 antibodies by surface plasmon resonance (Biacore), feline IL-31 surface; format: binding; conditions: IL-31 conjugated to the surface (FIG. 2)
Method: (§2) The affinity with which candidate mAbs bind canine and feline IL-31 was determined using surface plasmon resonance (SPR) on a Biacore system (Biocore Life Sciences (GE Healthcare), Uppsala, Sweden). To avoid affinity differences associated with differential surface preparation that can occur when immobilizing antibodies to surfaces; a strategy was employed where IL-31 was directly conjugated to the surface. Immobilization was obtained by amine coupling 5 μg/mL IL-31 using N-hydroxysuccinimide (NHS)/1-Ethyl-3-(3-dimethylaminopropyl) carbodiimide (EDC) chemistry. Chips were quenched with ethanolamine and the affinity with which all candidate mAbs bound to the immobilized IL-31 was evaluated. All curves were fit to a 1:1 model. Affinity constants (KD) less than 1×10^−11M (1E-11 M) are below the lower limit of quantitation of detection for the instrument. Results for affinity measurements are described herein.
Target sequence in this assay (as listed by the source): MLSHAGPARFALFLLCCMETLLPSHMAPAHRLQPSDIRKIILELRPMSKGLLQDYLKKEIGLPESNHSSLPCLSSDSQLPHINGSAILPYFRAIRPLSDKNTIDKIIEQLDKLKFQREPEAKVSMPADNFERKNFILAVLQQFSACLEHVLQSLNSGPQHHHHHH

feline IL-31 [4] = test: Inhibition of feline IL-31 induced pSTAT3 signaling in feline FCWF4 macrophage-like cells; format: cell-based; conditions: 0.2 μg/mL feline IL-31, pSTAT3, FCWF4 cells (FIG. 3)
Method: as §1

[5] = system: feline IL-31 15H05 mutant; test: Indirect ELISA, binding to feline IL-31 15H05 mutant; conditions: compared with wildtype
Method: (§3) Mice and dogs were immunized with recombinant canine IL-31 (SEQ ID No. 155) for the purpose of identifying antibodies. Serum antibody titers from immunized animals were determined using an enzyme linked immunosorbent assay (ELISA). Canine or feline IL-31 (50 ng/well) was immobilized to polystyrene microplates and used as a capture antigen. Serum from immunized animals was diluted in phosphate buffered saline with 0.05% tween-20 (PBST). The presence of anti-IL-31 antibodies was detected with an appropriate secondary HRP labeled antibody. Following addition of a chromogenic substrate (SureBlue Reserve TMB 1-Component Microwell Peroxidase Substrate, KPL, Inc., Gaithersburg, Md.) and a ten minute incubation at room temperature (RT) the reaction was stopped with the addition of […] of 0.1 N HCl. The absorbance of each well was determined at an optical density (OD) of 450 nm. Antibodies were selected for their ability to bind canine and feline IL-31 using an ELISA. In some cases, further characterization was performed at the time of selection using an ELISA with a mutant form of the feline IL-31 protein as a capture antigen. Cells producing antibodies with desired binding and inhibitory properties were chosen for sequence analysis of RNA transcripts representing the variable heavy (VH) and variable light (VL) IgG chains.
(§4) For the indirect ELISA method, antibody binding to wildtype and feline IL-31 15H05 mutant proteins was assessed. […] In comparison, the 11E12 antibody bound to the wild-type feline IL-31 and its binding was not impacted by the mutations in the 15H05 epitope region as evidenced by the data in FIG. 4. To confirm binding, biacore analysis was performed using canine, feline, equine, human, feline 15H05 mutant, and feline 11E12 mutant IL-31 proteins as surfaces and a single test concentration of antibody. Similar to ELISA observations, all antibodies tested bound to wildtype feline IL-31. In agreement with the data described above in this section, mouse antibodies 11 E12 and 15H05 both bound to canine and feline IL-31 surfaces. […] From this group of nine fully canine antibodies, only ZIL1 and ZIL9 cross-reacted with equine IL-31. Of note, antibody 15H05 was the only one of all assayed herein that bound to canine, feline, and equine IL-31 indicating some level of epitope conservation across the three species. In contrast, none of the antibodies described herein bound to human IL-31. Additional biacore surfaces were used to verify ELISA observations showing differential binding of antibodies to wildtype feline IL-31 and two proteins with mutations in the 15H05 (15H05 mutant) or 11 E12 (11E12 mutant) epitopes. […] Differing results can be attributed to differences in the two assay methodologies.
(§5) To determine the impact of mAbs 11E12 and 15H05 ability to bind these mutant forms of feline IL-31, an indirect ELISA was run using the mutants directly coated on to an immunoassay plate. […] The minor attenuation of mAb 15H05s binding to the 11E12 mutant is likely due to translational effects of the mutations from movement of the two front helices effecting the 15H05 binding site. The mutations designed to affect mAb 15H05s binding (mutant 15H05) show a complete loss of mAb 1505s ability to bind this IL-31 mutant by ELISA. Unlike the 11E12 mutant, the changes in the random coil recognized by mAb 15H05 (mutant 15H05) had no impact on mAb 11E12 binding further supporting the distinction between the two epitopes (FIG. 6C).

wildtype feline IL-31 = test: Indirect ELISA, binding to wildtype feline IL-31
Method: as §3, §4, §5

canine IL-31 [6] = test: Affinity of anti-IL-31 antibodies by surface plasmon resonance (Biacore), canine IL-31 surface; format: binding; conditions: IL-31 conjugated to the surface (FIG. 2)
Method: as §2

Sequence of feline IL-31 15H05 mutant (as listed by the source, change not shown): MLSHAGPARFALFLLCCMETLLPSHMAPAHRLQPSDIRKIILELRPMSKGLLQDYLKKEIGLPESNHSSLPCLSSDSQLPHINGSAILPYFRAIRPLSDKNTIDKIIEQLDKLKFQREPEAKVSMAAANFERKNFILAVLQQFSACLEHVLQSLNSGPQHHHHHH
Sequence of canine IL-31 (as listed by the source): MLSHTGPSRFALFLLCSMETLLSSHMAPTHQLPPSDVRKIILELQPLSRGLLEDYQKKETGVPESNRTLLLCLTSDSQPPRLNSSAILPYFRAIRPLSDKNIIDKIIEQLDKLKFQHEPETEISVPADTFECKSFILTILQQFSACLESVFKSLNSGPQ
Sequence of wildtype feline IL-31 (as listed by the source): as the sequence (as listed by the source, change not shown) above, with A126P, A128D counted along it

Molecule	IC50 against canine IL-31 (canine IL-31 [1])	potency (IC50) against feline IL-31 in canine DH82 cells (feline IL-31 [2])	affinity (KD) to feline IL-31 (feline IL-31 [3])	potency (IC50) against feline IL-31 in feline FCWF4 cells (feline IL-31 [4])	binding to feline IL-31 15H05 mutant (ELISA) [5]	binding to wildtype feline IL-31 (ELISA) (wildtype feline IL-31)	affinity (KD) to canine IL-31 (canine IL-31 [6])
B1	12.49 µg/mL	0.71 µg/mL					
B2	proportionally higher	highly consistent with values derived from the chimeric and mouse form	highly consistent with that of the mouse and chimeric form	highly consistent with values derived from the chimeric and mouse form			
B3					binding was impacted	capable of binding	
B4					binding was impacted	capable of binding	
B5		complete loss of cellular potency	total loss of binding	complete loss of cellular potency			total loss of binding
B6		increased potency	KD equivalent to that of the mouse and chimeric form				detrimental effect

— US11433139B2, “Peptide vaccines against interleukin-31” (Zoetis Services LLC, priority 2018, dated 2022)
